Laboratory results taken from article PMC10878242.

Biological target: mAb-1E7
Experiment: SPR; Biacore 8K; mAb-1E7 immobilized on a Protein G chip; PCV2-Cap or Nb61 injected at 30 µL/min, 1.5625 to 25 nM; 10 mM HEPES pH 7.4, 150 mM NaCl, 3 mM EDTA, 0.05% Tween 20

mAb-1E7, sequence (heavy, as listed by the source, chain 1 of 2): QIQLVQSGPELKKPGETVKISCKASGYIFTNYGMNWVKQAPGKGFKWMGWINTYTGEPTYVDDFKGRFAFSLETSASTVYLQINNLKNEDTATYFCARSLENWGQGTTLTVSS
mAb-1E7, sequence (light, as listed by the source, chain 2 of 2): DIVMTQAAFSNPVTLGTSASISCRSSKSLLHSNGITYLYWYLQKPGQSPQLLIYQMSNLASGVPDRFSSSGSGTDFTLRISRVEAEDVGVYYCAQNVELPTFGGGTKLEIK

B1: Nb61 (VHH)
VHH: QVQLQESGGGSVQAGGSLRLSCAGSDFPYCSYDMSWYRQAPGKEREFVSGIDRDGTIRYADAVKGRFTISQGDAKNTLYLQMNSLKPEDTAMYYCKTTPRNYNDFLGCVDYWGQGTQVTVSS
With B1 the Kd was 12 nM, the koff was 0.0222 s⁻¹ and the kon was 1.86e+06 M⁻¹ s⁻¹.
